T1: LRP6 PD3/4 (human, UniProt O75581 631-1246)
T1 construct: range 631-1246; Recombinant soluble fragment; also called Propeller Domains 3-4 of LRP6; recombinant LRP6 PD3/4
T1 sequence (looked up): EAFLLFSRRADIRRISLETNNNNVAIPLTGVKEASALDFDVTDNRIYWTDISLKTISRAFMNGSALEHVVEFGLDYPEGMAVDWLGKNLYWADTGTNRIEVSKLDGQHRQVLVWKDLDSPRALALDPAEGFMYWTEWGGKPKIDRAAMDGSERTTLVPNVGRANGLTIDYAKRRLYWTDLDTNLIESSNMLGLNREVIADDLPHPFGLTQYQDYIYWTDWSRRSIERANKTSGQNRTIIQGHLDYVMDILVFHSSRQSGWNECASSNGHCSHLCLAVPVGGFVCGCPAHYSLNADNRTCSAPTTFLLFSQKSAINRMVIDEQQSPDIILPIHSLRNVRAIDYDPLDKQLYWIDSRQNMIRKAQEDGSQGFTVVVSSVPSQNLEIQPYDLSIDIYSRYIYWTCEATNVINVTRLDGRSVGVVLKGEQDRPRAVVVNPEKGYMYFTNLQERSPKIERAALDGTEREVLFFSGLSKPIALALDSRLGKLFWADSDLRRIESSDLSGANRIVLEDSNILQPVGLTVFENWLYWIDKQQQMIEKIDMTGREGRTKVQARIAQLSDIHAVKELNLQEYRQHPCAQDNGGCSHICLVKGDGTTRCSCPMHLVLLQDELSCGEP

T2: LRP6-Fc (R&D Systems, catalog No: 1505-LR) (human, UniProt O75581 20-1370)
T2 construct: Purchased reagent; also called LRP6 protein; 360 KD homodimer antigen LRP6-Fc; not shown: Fc part of the purchased fusion
T2 sequence (looked up): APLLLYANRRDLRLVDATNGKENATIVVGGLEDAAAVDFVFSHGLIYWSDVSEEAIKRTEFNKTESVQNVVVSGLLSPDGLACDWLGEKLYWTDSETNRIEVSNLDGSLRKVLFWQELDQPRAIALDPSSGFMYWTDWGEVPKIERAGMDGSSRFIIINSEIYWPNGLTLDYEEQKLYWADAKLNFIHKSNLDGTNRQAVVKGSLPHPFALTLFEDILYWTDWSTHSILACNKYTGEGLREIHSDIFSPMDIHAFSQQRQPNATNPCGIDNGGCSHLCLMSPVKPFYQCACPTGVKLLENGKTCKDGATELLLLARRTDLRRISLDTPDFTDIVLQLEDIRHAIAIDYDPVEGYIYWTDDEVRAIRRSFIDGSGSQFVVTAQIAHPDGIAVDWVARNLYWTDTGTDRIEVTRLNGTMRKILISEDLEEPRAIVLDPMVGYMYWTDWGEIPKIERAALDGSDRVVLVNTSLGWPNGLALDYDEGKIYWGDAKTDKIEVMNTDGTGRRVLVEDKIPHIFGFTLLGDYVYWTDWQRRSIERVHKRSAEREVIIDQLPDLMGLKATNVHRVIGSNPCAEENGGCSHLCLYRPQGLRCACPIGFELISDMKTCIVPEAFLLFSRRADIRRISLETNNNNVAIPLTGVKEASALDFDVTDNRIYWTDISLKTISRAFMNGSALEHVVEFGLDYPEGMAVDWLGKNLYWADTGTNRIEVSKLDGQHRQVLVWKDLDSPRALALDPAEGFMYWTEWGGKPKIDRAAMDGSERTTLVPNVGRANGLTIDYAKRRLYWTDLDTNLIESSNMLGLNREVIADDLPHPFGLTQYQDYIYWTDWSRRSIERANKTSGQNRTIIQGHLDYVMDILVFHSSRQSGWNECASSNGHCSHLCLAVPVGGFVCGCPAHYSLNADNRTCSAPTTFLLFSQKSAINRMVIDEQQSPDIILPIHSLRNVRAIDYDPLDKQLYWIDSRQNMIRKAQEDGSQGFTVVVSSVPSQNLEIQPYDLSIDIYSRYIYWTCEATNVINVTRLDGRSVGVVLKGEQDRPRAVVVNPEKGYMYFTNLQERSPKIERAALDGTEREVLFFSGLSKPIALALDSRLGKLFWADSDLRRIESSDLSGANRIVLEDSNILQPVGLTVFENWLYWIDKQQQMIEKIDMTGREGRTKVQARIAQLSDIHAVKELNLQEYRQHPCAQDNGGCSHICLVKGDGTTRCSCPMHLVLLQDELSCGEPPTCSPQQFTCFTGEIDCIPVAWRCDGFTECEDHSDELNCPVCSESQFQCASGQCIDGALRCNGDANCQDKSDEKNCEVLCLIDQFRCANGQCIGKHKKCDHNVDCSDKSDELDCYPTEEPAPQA


What was measured:
LRP6 PD3/4 = target: T1, LRP6 PD3/4; experiment: Biacore T-100 SPR, antibody captured by anti-human IgG Fc on a CM4 chip, PD3/4 injected; N = 3
Method: The carboxymethyl dextran surface was activated with a 7 min injection of a 1:1 ratio of 0.4 M EDC (1-Ethyl-3-[3-dimethylaminopropyl]carbodiimide hydrochloride) and 0.1 M NHS(N-hydroxysuccinimide). […] PD1/2 and PD3/4 were prepared as two fold concentration series starting at 50 nM, and injected at 30 μl/min for 1 min. […] The surfaces were then regenerated two times with 10 mM glycine (pH 2.2). […] PD3/4 at a saturating concentration of 100 nM was then flowed over the surface at a flow rate of 30 μl/min for 30 min. A saturating concentration of 100 nM PD1/2 was injected immediately after the PD3/4. The dissociation constant (KD), association (kₒₙ), and dissociation (koff) rates were calculated from the baseline subtracted corrected binding curves using the BIAevaluation software (GE Healthcare).

cynoFcRn = target: T3, cynoFcRn (cynomolgus monkey, UniProt Q8SPV9); experiment: Biacore, cynoFcRn at pH 6.0
T3 construct: also called cynomolgus FcRn

human FcRn = human FcRn (human, UniProt P55899 24-297; P61769 21-119, limits assumed); experiment: Biacore, pH 6.0; human FcRn at pH 6.0, Biacore; IgG-scFv format (only low level binding at pH 7.4)
[1] = target: T2, LRP6-Fc (R&D Systems, catalog No: …); experiment: ELISA on coated LRP6-Fc, pentaHis-HRP detection
Method: (§1) Binding EC₅₀ of scFvs against LRP6 protein was measured by ELISA. Maxisorp plate was coated with LRP6-Fc (R&D Systems, catalog No: 1505-LR) at 3 μg/ml at 4° C. overnight. The plate was blocked with 50 μl of 2% BSA for one hour, and washed five times with the wash solution. The samples were diluted with 1% BSA accordingly. The plate was incubated at RT for 1 h, and washed for 3 times. Detection was done by adding 50 μl pentaHis-HRP (Qiagen Mat. No. 1014992) at 1:2000 dilution in 1% BSA, incubated at RT for 1 h, and washed 3 times. 50 μl of substrate reagent A plus B (R&D systems) was added, then incubated for 5-20 min depending on the color. The reaction was stopped by adding 25 μl of the stop solution, followed by plate reading at 450 nm.
For scFv06475, there were two mutations affecting the activity as detected by ELISA and Proteon kinetics analysis.

[2] = target: T2, LRP6-Fc (R&D Systems, catalog No: …); experiment: ELISA on coated LRP6-Fc, detection with pentaHis-HRP
Method: as §1
Affinity analysis ELISA EC₅₀ was carried out for both scFv08168 and scFv06475 wild type and variants.

[3] = target: T2, LRP6-Fc (R&D Systems, catalog No: …); experiment: Proteon XPR36, scFv captured by anti-His IgG, LRP6-Fc as analyte, bivalent analyte model
Method: Kinetics experiments were performed using BioRad's Proteon XPR36 biosensor. All experiments were performed at room temperature using PBST (phosphate buffered saline with 0.05% Tween-20) as the running buffer. All of the six vertical channels on a GLM chip were activated for 5 min at a flow rate of 30 μl/min using freshly prepared mixture of EDC (400 mM) and sNHS (100 mM). Anti-His mouse IgG1 (R&D systems, catalog No: MAB050) was diluted to 20 μg/ml in 10 mM sodium acetate, PH 5.0 and coupled to the chip for 5 min along separate vertical channels at a flow rate of 30 μl/min. 1 M ethanolamine was then injected for 5 min at 30 μl/min to deactivate the un-reacted sNHS groups. 2 μg/ml MOR08168 scFv wild type or 2 μg/ml MOR08168D1 mutant was then immobilized on different vertical channels for 15 sec at 100 μl/min followed by two 1 min injection of the running buffer at 30 μl/min in the horizontal direction. The sixth vertical channel was used as the channel reference and no ligand was immobilized on this channel. […] Association was monitored for 5 min and dissociation was monitored for 20 min. Buffer was injected in the sixth channel to serve as a row reference for real time baseline drifting correction. […] Kinetics analysis on the Proteon was performed in Proteon Manager v.2.1.1. […]

human LRP6 = human LRP6 (human, UniProt O75581 20-1613); experiment: cell-based or functional assay

Row | EC50 [1] | EC50 [2] | Kd [3] | Binder | further results
1 |  |  |  | anti-LRP6 MOR08168hIgG1LALA 6475 scfv (bispecific antibody, Biparatopic: MOR08168 IgG1 LALA with MOR06475 scFv (VL-(Gly4Ser)4-VH) fused by a (GlyGlySer)2 linker to the C-terminus of CH3; also called Biparatopic anti-LRP6 IgG scFv) heavy: not shown light: DIELTQPPSVSVAPGQTARISCSGDSLRNKVYWYQQKPGQAPVLVIYKNNRPSGIPERFSGSNSGNTATLTISGTQAEDEADYYCQSYDGQKSLVFGGGTKLTVLGQPKAAPSVTLFPPSSEELQANKATLVCLISDFYPGAVTVAWKADSSPVKAGVETTTPSKQSNNKYAASSYLSLTPEQWKSHRSYSCQVTHEGSTVEKTVAPTECS | Kd (LRP6 PD3/4): 1.93 nM; koff (LRP6 PD3/4): 0.000314 s⁻¹; kon (LRP6 PD3/4): 211000 M⁻¹ s⁻¹; Kd (cynoFcRn): 120 nM; Kd (human FcRn): 21 nM
2 | 27 nM | 27.4 nM |  | scFv06475 VH:G34V (scFv, name in Kabat numbering, V domains shown, Point mutant of scFv06475 (His tag)) VH: QVQLKESGPALVKPTQTLTLTCTFSGFSLSNRGVGVGWIRQPPGKALEWLAWIDWDDDKSYSTSLKTRLTISKDTSKNQVVLTMTNMDPVDTATYYCARMHLPLVFDSWGQGTLVTVSS VL: DIVLTQSPATLSLSPGERATLSCRASQFIGSRYLAWYQQKPGQAPRLLIYGASNRATGVPARFSGSGSGTDFTLTISSLEPEDFATYYCQQYYDYPQTFGQGTKVEIK | 
3 | 4.3 nM |  |  | scFv06475 VH:I37F (scFv, name in Kabat numbering, V domains shown, Point mutant of scFv06475 (His tag)) VH: QVQLKESGPALVKPTQTLTLTCTFSGFSLSNRGGGVGWFRQPPGKALEWLAWIDWDDDKSYSTSLKTRLTISKDTSKNQVVLTMTNMDPVDTATYYCARMHLPLVFDSWGQGTLVTVSS VL: DIVLTQSPATLSLSPGERATLSCRASQFIGSRYLAWYQQKPGQAPRLLIYGASNRATGVPARFSGSGSGTDFTLTISSLEPEDFATYYCQQYYDYPQTFGQGTKVEIK | 
4 |  | 2.04 nM | 3.82 nM | scFv08168 wild type (scFv, V domains shown, One polypeptide (scFv with His tag); also called MOR08168 scFv wild type) VH: QVQLVESGGGLVQPGGSLRLSCAASGFTFSDYVINWVRQAPGKGLEWVSGISWSGVNTHYADSVKGRFTISRDNSKNTLYLQMNSLRAEDTAVYYCARLGATANNIRYKFMDVWGQGTLVTVSS VL: DIELTQPPSVSVAPGQTARISCSGDSLRNKVYWYQQKPGQAPVLVIYKNNRPSGIPERFSGSNSGNTATLTISGTQAEDEADYYCQSYDGQKSLVFGGGTKLTVL | IC50 by STF assay for Wnt1 inhibition (human LRP6): 7.41 nM
5 |  | 1.61 nM | 2.55 nM | scFv08168 D1 (VH:I34M + VH:S49A) (scFv, V domains shown, Double mutant of scFv08168 (His tag); also called MOR08168D1 mutant; double mutant D1) VH: QVQLVESGGGLVQPGGSLRLSCAASGFTFSDYVMNWVRQAPGKGLEWVAGISWSGVNTHYADSVKGRFTISRDNSKNTLYLQMNSLRAEDTAVYYCARLGATANNIRYKFMDVWGQGTLVTVSS VL: DIELTQPPSVSVAPGQTARISCSGDSLRNKVYWYQQKPGQAPVLVIYKNNRPSGIPERFSGSNSGNTATLTISGTQAEDEADYYCQSYDGQKSLVFGGGTKLTVL | 
